Measured values published in article doi:10.1101/2025.05.11.653314.

Molecular target: U. parvum Smc (Ureaplasma parvum)
Experiment: cross-linking

stoichiometry N: 2
Substance: U. parvum Smc (enzyme)
